Measured values published in the supplement of paper PMC10567573.

B1: KLHDC10 (parent)
chain: CPIIRIPNRFLRGHRPPPARSGHR
B2: PTPRD (parent)
chain: MVHVARLLLLLLTFFLRTDAETPP
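Note: lentivirally expressed fusions sorted by FACS into six bins by GFP to DsRed ratio, PSI derived from sequencing read proportions per bin multiplied by bin number.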

Variants of: B1
Assay: protein stability index of a GFP-peptide fusion (GPS, HEK-293T) (PSI 1-6); higher = more stable
Details: c terminus: a fixed tail appended
With G22N the protein stability index was 1.95. Variant G22Q has a protein stability index of 1.33. Variant G22R has a protein stability index of 2.17. G22S gave a protein stability index of 1.66. For G22T, the protein stability index was 2.39. Work on G22V yielded a protein stability index of 2.76. G22Y showed a protein stability index of 1.98. Variant H23A has a protein stability index of 1.85. H23D showed a protein stability index of 1.38. In the case of H23E, the protein stability index is reported as 1.66. H23F showed a protein stability index of 1.52. Work on H23G yielded a protein stability index of 2.02. Work on H23I yielded a protein stability index of 1.82. With H23K the protein stability index was 1.5. H23L gave a protein stability index of 1.12. Variant H23M has a protein stability index of 1.49. Variant H23N has a protein stability index of 2.43. For H23P, the protein stability index was 1.67. With H23Q the protein stability index was 2.06. In the case of H23R, the protein stability index is reported as 1.67. H23S gave a protein stability index of 1.02. H23T gave a protein stability index of 2.66. H23V gave a protein stability index of 1.69. For H23W, the protein stability index was 1.59. In the case of H23Y, the protein stability index is reported as 2.01. R24A gave a protein stability index of 2.37. With R24C the protein stability index was 1.82. Variant R24D has a protein stability index of 2.93. R24E gave a protein stability index of 1.59. Work on R24F yielded a protein stability index of 1.31. Variant R24G has a protein stability index of 2.1. Variant R24H has a protein stability index of 2.01. For R24I, the protein stability index was 2.99. With R24K the protein stability index was 1.29. R24L showed a protein stability index of 2.61. R24M showed a protein stability index of 1.93. In the case of R24N, the protein stability index is reported as 1.84. With R24P the protein stability index was 2.33. In the case of R24S, the protein stability index is reported as 2.03. With R24V the protein stability index was 2.54. With R24W the protein stability index was 2.99. R24Y gave a protein stability index of 1.7.

Variants of: B2
Assay: as above
Details: c terminus: a fixed tail appended
For M1E, the protein stability index was 2.33. M1F gave a protein stability index of 1.96. Variant M1H has a protein stability index of 1.82. In the case of M1I, the protein stability index is reported as 3.05. M1K gave a protein stability index of 2.28. Variant M1L has a protein stability index of 1.52. Variant M1Q has a protein stability index of 2.33. M1T showed a protein stability index of 2.87. Variant M1Y has a protein stability index of 3.9. Work on V2A yielded a protein stability index of 2.85. Work on V2C yielded a protein stability index of 2.73. For V2D, the protein stability index was 2.92. V2F gave a protein stability index of 4.14. For V2G, the protein stability index was 1.83. For V2H, the protein stability index was 2.53. Work on V2M yielded a protein stability index of 2.69. V2N showed a protein stability index of 1.79. Variant V2P has a protein stability index of 1.93. For V2Q, the protein stability index was 1.88. For V2R, the protein stability index was 2.51. V2S gave a protein stability index of 2.4. In the case of V2T, the protein stability index is reported as 2.06. With V2W the protein stability index was 2.96. Variant H3C has a protein stability index of 4.98. In the case of H3D, the protein stability index is reported as 2.1. In the case of H3K, the protein stability index is reported as 1.78. H3L gave a protein stability index of 2.27. With H3M the protein stability index was 2.86. In the case of H3P, the protein stability index is reported as 1.49. H3S gave a protein stability index of 4.08. For H3T, the protein stability index was 3.21. With V4C the protein stability index was 3.07. For V4I, the protein stability index was 1.41. For V4L, the protein stability index was 3.81. Variant V4M has a protein stability index of 1.46. For V4N, the protein stability index was 2.68. V4R gave a protein stability index of 2.34. V4S gave a protein stability index of 2.46. V4T showed a protein stability index of 2.52. Variant V4Y has a protein stability index of 1.52. With A5C the protein stability index was 2.97. Variant A5F has a protein stability index of 3.28. In the case of A5H, the protein stability index is reported as 4.03. In the case of A5I, the protein stability index is reported as 1.95. A5L showed a protein stability index of 3.83. A5Q gave a protein stability index of 2.34. Variant A5R has a protein stability index of 1.78. With A5T the protein stability index was 2.7. A5W gave a protein stability index of 2.51. For A5Y, the protein stability index was 2.6. For R6C, the protein stability index was 2.16. R6D gave a protein stability index of 3.08. R6E showed a protein stability index of 3.41. With R6F the protein stability index was 1.74. For R6H, the protein stability index was 3.34. Work on R6I yielded a protein stability index of 1.13. Variant R6K has a protein stability index of 1.67. For R6L, the protein stability index was 1.9. Work on R6M yielded a protein stability index of 1.76. R6Q showed a protein stability index of 3.99. For R6S, the protein stability index was 1.88. For R6T, the protein stability index was 2.3. Variant R6V has a protein stability index of 2.29. Work on L7C yielded a protein stability index of 2.95. L7E gave a protein stability index of 1.36. Work on L7G yielded a protein stability index of 4.57. Variant L7H has a protein stability index of 2.1. In the case of L7I, the protein stability index is reported as 3.46. For L7K, the protein stability index was 3.28. In the case of L7N, the protein stability index is reported as 3.02. L7P gave a protein stability index of 1.74. Work on L7R yielded a protein stability index of 2.75. L7S gave a protein stability index of 2.15. For L7T, the protein stability index was 3.27. For L7Y, the protein stability index was 2.55. For L8C, the protein stability index was 1.89. Work on L8D yielded a protein stability index of 3.8. In the case of L8F, the protein stability index is reported as 2.82. Variant L8I has a protein stability index of 2.58. L8K gave a protein stability index of 1.98. Variant L8Q has a protein stability index of 2.18. L8R gave a protein stability index of 2.45. Work on L8T yielded a protein stability index of 3.02. L8Y gave a protein stability index of 3.46. Variant L9A has a protein stability index of 2.04. Variant L9D has a protein stability index of 3.06. With L9F the protein stability index was 2.89. Variant L9H has a protein stability index of 1.53. Variant L9I has a protein stability index of 2.95. L9K gave a protein stability index of 3.08. In the case of L9M, the protein stability index is reported as 1.87. In the case of L9N, the protein stability index is reported as 1.58. L9Q showed a protein stability index of 1.8. Variant L9R has a protein stability index of 1.88. With L9S the protein stability index was 2.29. L9T gave a protein stability index of 3.23. Work on L9W yielded a protein stability index of 2.29. L9Y showed a protein stability index of 2.74. In the case of L10A, the protein stability index is reported as 2.23. Variant L10C has a protein stability index of 2.04. Variant L10D has a protein stability index of 1.67. L10E showed a protein stability index of 2.79. Work on L10F yielded a protein stability index of 2.43. For L10G, the protein stability index was 1.33. For L10I, the protein stability index was 4.4. Work on L10K yielded a protein stability index of 2.83. L10M showed a protein stability index of 2.42. L10N gave a protein stability index of 2.71. L10P gave a protein stability index of 3.02. In the case of L10Q, the protein stability index is reported as 1.57. L10R gave a protein stability index of 2.14. With L10T the protein stability index was 1.24. In the case of L10W, the protein stability index is reported as 1.93. Work on L10Y yielded a protein stability index of 1.66. For L11E, the protein stability index was 1.62. For L11F, the protein stability index was 2.56. L11H showed a protein stability index of 1.97. L11I gave a protein stability index of 2.14. Work on L11K yielded a protein stability index of 1.69. For L11M, the protein stability index was 3.56. In the case of L11N, the protein stability index is reported as 3.99. Variant L11P has a protein stability index of 3.92. L11S gave a protein stability index of 3.85. In the case of L11V, the protein stability index is reported as 1.84. L11W gave a protein stability index of 3.02.
